± gives the uncertainty stated by the source.
Assay: self-splicing fitness, log relative to wild type (ln ratio); higher = more splicing; Tetrahymena group I intron in knt gene, E. coli kanamycin selection, DiMSum; sequences stand for … in CUCUCU…GGAGGGAAAAGUUAUCAGGCAUGCACCUGGUAGCUAGUCUUUAAACCAAUAGAUUGCAUCGGUUUAAAAGGCAAGACCGUCAAAUUGCGGGAAAGGGGUCAACAGCCGUUCAGUACCAAGUCUCAGGGGAAACUUUGAGAUGGCCUUGCAAAGGGUAUGGUAAUAAGCUGACGGACAUGGUCCUAACCACGCAGCCAAGUCCUAAGUCAACAGAUCUUCUGUUGAUAUGGAUGCAGUUCACAGACUAAAUGUCGGUCGGGGAAGAUGUAUUCUUCUCAUAAGAUAUAGUCGGACCUCUCCUUAAUGGGAGCUAGCGGAUGAAGUGAUGCAACACUGGAGCCGCUGGGAACUAAUUUGUAUGCGAAAGUAUAUUGAUUAGUUUUGGAGUACUCGUGGUCG
In short: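 The eight P1ex-region nucleotides of an intron in the knt kanamycin-resistance gene on pET-22b(+) were all randomised and the library put into E. coli BL21(DE3). Six replicate transformations were grown overnight at 37°C or 30°C on LB agar with or without 25 μg/mL kanamycin, together with 100 μg/mL carbenicillin, 50 μM IPTG and 0.2% rhamnose. Colonies were pooled and amplicon-sequenced on an Illumina HiSeq 2500. Fitness from DiMSum is the error-weighted combination of wild-type-normalised replicate fold changes, kanamycin over none.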

Sequence | self-splicing fitness (ln) (30 °C) | self-splicing fitness (ln) (37 °C)
GGUCAGCAAUAUUACGCGGU | -3.97 ± 0.39 | -2.26 ± 0.27
GGUCAGCAAUAUUACGCGUA | -0.325 ± 0.067 | -0.158 ± 0.07
GGUCAGCAAUAUUACGCUUC | -1.12 ± 0.14 | -0.693 ± 0.24
GGUCAGCAAUAUUACGGACC | -3.67 ± 0.18 | -2.08 ± 0.22
GGUCAGCAAUAUUACGGAGA |  | -1.69 ± 0.28
GGUCAGCAAUAUUACGGAGU | -0.947 ± 0.086 | 0.0968 ± 0.12
GGUCAGCAAUAUUACGGCAA | 0.415 ± 0.065 | 0.217 ± 0.083
GGUCAGCAAUAUUACGGCAU | -0.469 ± 0.073 | 0.642 ± 0.1
GGUCAGCAAUAUUACGGCUC | -2.39 ± 0.21 | -1.68 ± 0.3
GGUCAGCAAUAUUACGGCUG | -0.728 ± 0.078 | -0.439 ± 0.091
GGUCAGCAAUAUUACGGGGU | -3.37 ± 0.12 | -0.793 ± 0.086
GGUCAGCAAUAUUACGGUGG | -4.17 ± 0.28 | -1.32 ± 0.13
GGUCAGCAAUAUUACGUCGC | -0.517 ± 0.11 | 0.282 ± 0.12
GGUCAGCAAUAUUACGUCUC | 0.385 ± 0.17 | -0.113 ± 0.15
GGUCAGCAAUAUUACGUGCU | -1.5 ± 0.052 | -0.199 ± 0.067
GGUCAGCAAUAUUACGUUAA | -1.4 ± 0.099 | -0.249 ± 0.088
GGUCAGCAAUAUUACGUUGG | -3.35 ± 0.21 | -2.51 ± 0.2
GGUGAGCAAUAUUACGAACG | -0.652 ± 0.13 | -1.23 ± 0.17
GGUGAGCAAUAUUACGACUU | -0.531 ± 0.11 | 0.294 ± 0.12
GGUGAGCAAUAUUACGAUAG | -0.576 ± 0.23 | -2.81 ± 0.34
GGUGAGCAAUAUUACGCAUA | -0.925 ± 0.15 | -1.55 ± 0.22
GGUGAGCAAUAUUACGCUUU | -2.63 ± 0.4 | -3.04 ± 0.47
GGUGAGCAAUAUUACGGCAC | -1.85 ± 0.17 | -0.155 ± 0.18
GGUGAGCAAUAUUACGGCAG | -2.25 ± 0.32 | 
